Reference: the Human Domainome abundance scans (Beltran et al. 2025)

B1: Chromodomain-helicase-DNA-binding protein 5, residues 411 to 463; numbered along this chain, Q8TDI0 (parent)
chain: EEDDHMEFCRVCKDGGELLCCDACPSSYHLHCLNPPLPEIPNGEWLCPRCTCP

Variants of: B1
Assay: abundance fitness (aPCA) (normalised: wild type 0, dead -1); higher = more abundant; growth selection in yeast, the domain comes from the species named
Details: Homo sapiens

Abundance fitness: each site, then its substitutions
E17: P -0.239, Q 0.032, R -0.187, S -0.21, T 0.03, V -0.228, W -0.458, Y -0.272
L18: A -0.769, C -0.288, D -0.972, E -0.812, F -0.969, G -0.655, I 0.035, M -0.019, N -0.932, P -0.91, Q -0.415, R -0.084, S -0.754, T -0.076, V 0.065, W -0.972
L19: C -0.317, E -0.346, F 0.001, G -0.571, I 0.26, K -0.361, P -1.22, Q -0.155, R -0.078, S -0.537, T -0.169, V -0.031, W -0.288, Y 0.099
C20: A 0.071, D 0.217, E -0.049, F -0.05, G 0.116, H -0.065, I 0.073, K 0.01, L 0.006, M -0.017, P 0.146, Q 0.031, S -0.008, T 0.123, V 0.007, W -0.029, Y 0.125
C21: A -0.83, D -0.791, E -0.873, F -0.844, G -0.809, H -0.773, I -1.13, K -0.641, L -0.999, M -1.08, N -1.03, P -0.483, Q -0.633, R -1.09, S -0.883, T -1, V -0.932, W -0.958, Y -0.946
D22: A 0.05, C -0.046, E 0.061, F -0.139, G 0.049, H 0.005, I -0.04, K 0.108, L -0.026, M 0.051, N 0.093, P 0.008, Q 0.099, R 0.071, S 0.034, T 0.038, V -0.085, W -0.082, Y -0.059
A23: C -0.018, D -0.082, F -0.708, G -0.014, H 0.088, K 0.092, L 0.068, M -0.324, P -0.488, Q 0.305, R -0.022, S 0.301, T 0.08, W -0.043, Y 0.193
C24: A -0.637, D -0.703, E -0.564, G -0.723, H 0.139, I -0.886, K -0.437, L -1.15, M -0.781, N -0.904, P -0.791, Q -1.11, R -0.392, T -0.464, V -0.589, Y -0.606
P25: A 0.094, C 0.087, E 0.054, F -0.094, G 0.085, H 0.024, I -0.04, K 0.058, L -0.157, M -0.11, N -0.025, Q -0.118, R 0.087, S 0.022, T 0.044, V 0.03, W -0.067, Y 0.023
S26: A 0.044, C -0.107, D 0.011, E 0.011, G -0.036, H -0.008, I -0.08, K -0.062, L 0.001, N 0.167, Q -0.387, R -0.106, T 0.002, V 0.02, W -0.37
S27: A 0.07, C -0.035, D -0.3, E -0.212, F 0.152, G -0.168, H 0.026, I -0.345, L -0.039, M -0.052, N 0.02, P -0.47, Q -0.064, R -0.056
Y28: A -0.466, C -0.653, D -0.405, E -0.853, F -0.007, G -0.536, H -0.376, I -0.535, K -0.481, M -0.262, N -0.608, P -0.565, Q -0.454, R -0.527, S -0.679, T -0.542, V -0.428, W -0.188
H29: C -0.164, F -0.765, G -0.825, I -1.2, K -1.06, L -0.528, M -0.87, P -0.732, R -0.741, S -0.825, T -1.14, V -0.882, W -1.25, Y -0.652
L30: A 0.072, C -0.038, D -0.013, E -0.142, F -0.06, G 0.002, I -0.002, K -0.043, M 0.137, N -0.04, P 0.087, Q 0.016, R -0.018, S 0.02, V 0.019, W -0.201, Y -0.019
H31: A -0.092, C -0.421, D 0.072, E 0.074, F 0.516, G 0.089, I -0.044, K -0.029, L -0.246, M -0.088, N 0.121, P -0.406, Q -0.436, R 0.05, S -0.075, T -0.16, V -0.268, W -0.361, Y -0.455
C32: A -0.768, E -0.264, F -0.758, G -0.985, I -0.979, K -0.66, L -0.716, M -0.736, N -0.395, P -0.638, Q -0.72, R -1, S -1.05, V -0.963, W -0.967, Y -0.846
L33: A -0.171, C -0.125, D -0.344, E -0.452, F -0.209, G -0.554, H -0.706, I 0.252, K -0.699, M -0.235, N -0.971, P -0.496, Q -0.484, R -0.6, S -0.487, T -0.198, V -0.04, W -0.594, Y -0.482
N34: A -0.018, C -0.074, D -0.27, E -0.036, F 0.066, G -0.169, H -0.303, I -0.132, K 0.046, L -0.015, M -0.221, P -0.463, Q 0.021, R -0.039, S 0.097, T -0.189, V -0.067, W -0.204, Y -0.139
P35: A -0.299, C -0.371, D -0.246, E 0.034, F -0.24, G -0.182, H -0.353, I -0.183, L -0.315, N -0.172, Q -0.12, S -0.23, V -0.145, W -0.404, Y -0.476
P36: A 0.099, C -0.084, D -0.068, E -0.194, F -0.091, G -0.169, H -0.211, I 0.125, K 0.088, L -0.215, M -0.026, N -0.591, Q 0.089, S -0.023, V 0.066, Y -0.838
L37: A 0.031, C -0.299, E -0.041, F -0.21, G -0.232, H 0.268, I -0.023, K -0.201, M -0.262, N -0.229
